The target in assay [1] is T1, silk fibroin, substantially sericin-depleted, from Bombyx mori silk (Bombyx mori, UniProt P05790 22-5263; P21828 17-262, limits assumed).
T1 construct: also called silk fibroin hydrogel; silk gel
Nature of the assay: HPLC of 23RGD extracted from lyophilized silk precipitate, against standard curve; RHI formulation. On the procedure:
(§1) The amount of 23RGD bound to silk precipitates was quantified by analyzing lyophilized samples. The 23RGD was removed by incubating the samples for 4 hours in a dissolving buffer, then centrifuging on an Eppendorf 5415C (Eppendorf North America Inc., Westbury, N.Y.) at 16,000 g (RCF) for 30 minutes and the supernatant collected. This supernatant was then centrifuged in identical fashion and the final supernatant collected for HPLC analysis using a PerkinElmer Series 200 (PerkinElmer, Waltham, Mass.). The 23RGD peak areas from each curve were compared against a standard curve. 1-Way ANOVA was used to test for significant differences caused by changing silk concentration, 23RGD concentration, and accelerant volume. A Student's t-test was used to test the significance of differences resulting from altered ethanol concentrations.

The target in assay [2] is T1, silk fibroin, substantially …. Nature of the assay: HPLC of 23RGD extracted from lyophilized silk precipitate, against standard curve; AVHI formulation. As for the experimental part: as §1
The target is the same in assay [3]. Description: HPLC of 23RGD extracted from lyophilized silk precipitate, against standard curve; SCVLO formulation. As for the experimental part: as §1
The target is the same in assay [4]. Description: HPLC of 23RGD extracted from rinsed silk hydrogel, peak area against a 23RGD standard curve. The text has this: 23RGD-infused gels were studied to quantify the amount of 23RGD bound to the silk-hydrogel device as well as the quantity of free 23RGD which might be rinsed free of the device under relevant conditions. Briefly, samples of 23RGD-infused gel were cast and rinsed according to the methods above, with samples of rinse buffer being collected from each rinse for subsequent analysis by HPLC. Additionally, subsequent to the last rinse, the gel samples were mechanically pulverized by means of a stainless steel stirring rod and the adsorbed 23RGD removed by incubation for 4 hours in a dissolving buffer. This mixture of gel and solvent was then centrifuged on an Eppendorf 5415C at 16,000 g RCF for 30 minutes. The supernatant was collected and centrifuged another 30 minutes at 16,000 g RCF after which time the supernatant was collected in a sample vial for HPLC analysis. Samples of rinse buffer from the first and last rinse were centrifuged in the same fashion after being diluted with the same solvent the gel was extracted with in a volumetric ratio of 1 part rinse buffer to 4 parts solvent. To ensure 23RGD-hydrogel device rinse-exposed surface area was not a limiting factor, the same rinse and extraction process was performed upon devices pulverized after gelation and before rinsing.

Assay [5] has the same target. Description: HPLC of 23RGD extracted from lyophilized silk precipitate, against standard curve; formulation labelled RLO in this sentence. On the procedure:
as §1

Assay [6] has the same target. Description: HPLC of 23RGD extracted from lyophilized silk precipitate, against standard curve; BASE formulation. On the procedure:
as §1

For assay [7] the target is unchanged. Nature of the assay: HPLC of 23RGD extracted from silk precipitates, across formulations. On the procedure: as §1
The target is the same in assay [8]. Description: HPLC of 23RGD extracted from lyophilized silk precipitate, against standard curve; AVLO formulation. On the procedure:
as §1

Assay [9] shares this target. Description: HPLC of 23RGD extracted from lyophilized silk precipitate, against standard curve; formulation labelled RMED in this sentence. As for the experimental part: as §1
For assay [10] the target is unchanged. Nature of the assay: HPLC of 23RGD extracted from lyophilized silk precipitate, against standard curve; SCLO formulation. On the procedure:
as §1

This is an account of results in US20110014287A1 (ALLERGAN, published 2011).

On to GRGDIPASSKGGGGSRLLLLLLR (not fully specified; C-terminal -NH2 as printed (HOOC-GRGDIPASSKG4SRL6R-NH2), also called amphiphilic peptide) [23RGD peptide (HOOC-GRGDIPASSKG4SRL6R-NH2)], for which the “23RGD:silk ratio bound to the precipitate” value is 10.7 23RGD:silk ratio in [1]; 10.5 23RGD:silk ratio in [2]; 11 23RGD:silk ratio in [3]; 1.1 23RGD:silk ratio in assay [5]; 8.7 23RGD:silk ratio in assay [6]; 5.2 23RGD:silk ratio in assay [8]. Also, the “23RGD:silk ratio bound to the precipitate” value in assay [9] is 6.95 23RGD:silk ratio; in assay [10], 9.9 23RGD:silk ratio. Moreover, in assay [4], the “23RGD:silk ratio bound to the gel” value was 3.35 23RGD:silk ratio. In addition, in assay [7], the “apparent saturation 23RGD:silk ratio” value is ~10 23RGD:silk ratio.
